This is an account of results in patent publication CN117083298A (CENTOCOR ORTHO BIOTECH INC, dated 2023).

The target of assay [1] is T1, 人全长重组tau(2N4R) (human, UniProt P10636 2-758).
T1 construct: also called human full-length recombinant tau; 全长重组Tau蛋白
The assay can be described thus: SPR, single-cycle kinetics. For orientation: In SPR one partner is held on a chip, and binding of the other changes the refractive index at the surface.

In assay [2] the target is T1, 人全长重组tau(2N4R). The assay can be described thus: SPR, Biacore T200, 25 °C, mAb captured by anti-Fc on a CM4 chip, tau as analyte, 1:1 Langmuir fit.

T1 sequence (P10636 other isoform, or with tags, fused parts or gaps limits assumed): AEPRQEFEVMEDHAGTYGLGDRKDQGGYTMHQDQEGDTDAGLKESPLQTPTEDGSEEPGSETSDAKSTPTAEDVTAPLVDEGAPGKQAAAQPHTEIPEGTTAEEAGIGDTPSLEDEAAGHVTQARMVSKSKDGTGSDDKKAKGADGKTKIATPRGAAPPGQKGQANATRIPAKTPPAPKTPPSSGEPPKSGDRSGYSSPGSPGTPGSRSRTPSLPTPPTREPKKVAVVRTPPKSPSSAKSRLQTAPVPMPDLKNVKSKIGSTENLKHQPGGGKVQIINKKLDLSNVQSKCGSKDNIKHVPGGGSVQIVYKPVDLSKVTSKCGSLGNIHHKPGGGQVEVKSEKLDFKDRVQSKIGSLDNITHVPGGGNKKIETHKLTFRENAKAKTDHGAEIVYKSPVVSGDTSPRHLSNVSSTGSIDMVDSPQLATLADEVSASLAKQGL

B1: PT1B1183 (antibody, human IgG1, kappa, V domains shown)
VH: QVQLVQSGAEVKKPGASVKVSCKASGYTFTSYWITWVRQRPGQGLEWMGDIHPGRGSTKYAQKLQGRVTMTTDTSTSTAYMELRSLRSDDTAVYYCARRWGFDYWGQGTLVTVSS
VL: DIVMTQTPLSSPVTLGQPASISCRSSKSLLYKDGKTYLNWFQQRPGQSPRLLIYLMSTRASGVPDRFSGSGAGTDFTLKISRVEAEDVGVYYCQQLVDYPLTFGQGTKLEIKR
notes: Humanised antibody obtained from PT1B1153 by modifying framework region 2 of the light chain
In the case of B1, the binding result with 人全长重组tau(2N4R) [1] is listed as “binds”.

B2: PT1B545 (antibody, mouse IgG2a, kappa, V domains shown)
VH: QVQLQQPGAELVKPGASVKMSCKASGYTFTSYWITWVKQRPGQGLEWIGDIHPGRGSTKSNEKFKSKATLTVDTSSSTAYMQFSSLTSEDSAVYYCARRWGFDYWGQGTTLTVSS
VL: DIVITQDELSNPVTSGESVSISCRSSKSLLYKDGKTYLNWFLQRPGQSPQLLIYLMSTRASGVSDRFSGSGSGTDFTLEISRVKAEDVGVYYCQQLVDYPLTFGAGTKLELKR
notes: Parental mouse mAb; also called PT/66; 亲本mAb PT/66
As to B2, the binding result in the assay with 人全长重组tau(2N4R) [2] is given as “binds”.
